Consider six molecules from paper PMC6521718 (Molecular cell, 2018).

Where two headings read alike, the source gives them in different places.

The data set “cryo-EM structure” concerns the molecule itself. Kind of data set: cryo-EM structure.
The next data set addresses T1, Csy complex Cas8f N250A (Pseudomonas aeruginosa PA14, UniProt Q02ML9;Q02MM0;Q02MM1;Q02MM2 1-434;1-327;1-342;1-187, N250A).
T1 sequence 1: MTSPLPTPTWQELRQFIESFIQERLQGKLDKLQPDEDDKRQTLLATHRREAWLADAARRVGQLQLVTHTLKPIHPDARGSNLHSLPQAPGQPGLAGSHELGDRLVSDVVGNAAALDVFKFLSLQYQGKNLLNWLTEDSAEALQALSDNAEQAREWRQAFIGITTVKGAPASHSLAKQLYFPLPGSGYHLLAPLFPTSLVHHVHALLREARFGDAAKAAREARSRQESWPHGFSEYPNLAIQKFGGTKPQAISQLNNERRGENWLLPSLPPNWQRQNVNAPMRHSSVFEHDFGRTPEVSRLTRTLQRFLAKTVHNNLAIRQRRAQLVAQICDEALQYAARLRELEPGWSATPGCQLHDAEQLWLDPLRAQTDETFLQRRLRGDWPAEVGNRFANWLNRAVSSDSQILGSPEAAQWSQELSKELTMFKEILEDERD
T1 sequence 2: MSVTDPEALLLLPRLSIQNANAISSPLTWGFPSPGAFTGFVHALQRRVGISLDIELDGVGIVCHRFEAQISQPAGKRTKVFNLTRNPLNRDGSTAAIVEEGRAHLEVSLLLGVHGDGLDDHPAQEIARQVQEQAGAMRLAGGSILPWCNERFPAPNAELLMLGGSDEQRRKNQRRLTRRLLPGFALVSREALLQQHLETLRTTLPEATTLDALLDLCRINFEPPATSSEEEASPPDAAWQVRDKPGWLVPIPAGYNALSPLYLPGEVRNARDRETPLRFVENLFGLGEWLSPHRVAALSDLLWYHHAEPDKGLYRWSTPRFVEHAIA
T1 sequence 3: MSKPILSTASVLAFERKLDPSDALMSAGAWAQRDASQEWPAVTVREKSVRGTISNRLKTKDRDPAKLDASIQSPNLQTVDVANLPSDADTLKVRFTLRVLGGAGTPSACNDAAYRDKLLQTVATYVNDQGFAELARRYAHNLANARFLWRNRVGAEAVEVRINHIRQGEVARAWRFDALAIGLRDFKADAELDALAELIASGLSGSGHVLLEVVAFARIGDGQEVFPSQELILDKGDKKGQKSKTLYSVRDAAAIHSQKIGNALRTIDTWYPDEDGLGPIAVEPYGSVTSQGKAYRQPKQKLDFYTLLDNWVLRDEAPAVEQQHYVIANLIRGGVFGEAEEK
T1 sequence 4: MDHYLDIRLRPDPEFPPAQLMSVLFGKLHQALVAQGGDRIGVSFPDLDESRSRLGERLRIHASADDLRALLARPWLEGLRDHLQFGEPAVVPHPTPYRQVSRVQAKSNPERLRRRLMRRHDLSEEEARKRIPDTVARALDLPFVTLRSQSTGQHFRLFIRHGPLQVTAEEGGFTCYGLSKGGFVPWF
Kind of data set: EMSA. In general terms: Mobility shift assays separate free from complexed probe on a gel.

For data set [1], the target named is T2, Csy complex (type I-F, wild type) (Pseudomonas aeruginosa PA14, UniProt Q02ML9;Q02MM0;Q02MM1;Q02MM2 1-434;1-327;1-342;1-187).
T2 sequence 1: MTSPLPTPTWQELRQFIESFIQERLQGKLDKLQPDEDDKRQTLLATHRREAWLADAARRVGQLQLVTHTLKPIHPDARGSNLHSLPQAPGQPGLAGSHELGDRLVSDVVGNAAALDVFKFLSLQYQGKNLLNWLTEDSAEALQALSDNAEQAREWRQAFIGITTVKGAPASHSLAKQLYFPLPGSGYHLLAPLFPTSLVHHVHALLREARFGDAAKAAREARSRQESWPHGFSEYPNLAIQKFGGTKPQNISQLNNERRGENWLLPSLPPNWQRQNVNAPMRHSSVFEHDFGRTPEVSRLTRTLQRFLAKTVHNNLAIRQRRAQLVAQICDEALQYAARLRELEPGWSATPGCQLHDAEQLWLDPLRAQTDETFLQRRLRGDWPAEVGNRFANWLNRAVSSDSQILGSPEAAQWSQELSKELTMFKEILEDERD
T2 sequence 2: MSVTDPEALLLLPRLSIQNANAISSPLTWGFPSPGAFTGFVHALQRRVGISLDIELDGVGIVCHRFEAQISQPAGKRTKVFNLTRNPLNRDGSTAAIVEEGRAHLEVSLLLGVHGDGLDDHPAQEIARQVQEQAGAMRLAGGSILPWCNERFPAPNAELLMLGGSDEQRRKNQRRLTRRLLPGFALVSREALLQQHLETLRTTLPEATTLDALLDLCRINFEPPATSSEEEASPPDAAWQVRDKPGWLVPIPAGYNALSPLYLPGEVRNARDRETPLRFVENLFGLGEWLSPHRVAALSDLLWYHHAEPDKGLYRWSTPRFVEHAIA
T2 sequence 3: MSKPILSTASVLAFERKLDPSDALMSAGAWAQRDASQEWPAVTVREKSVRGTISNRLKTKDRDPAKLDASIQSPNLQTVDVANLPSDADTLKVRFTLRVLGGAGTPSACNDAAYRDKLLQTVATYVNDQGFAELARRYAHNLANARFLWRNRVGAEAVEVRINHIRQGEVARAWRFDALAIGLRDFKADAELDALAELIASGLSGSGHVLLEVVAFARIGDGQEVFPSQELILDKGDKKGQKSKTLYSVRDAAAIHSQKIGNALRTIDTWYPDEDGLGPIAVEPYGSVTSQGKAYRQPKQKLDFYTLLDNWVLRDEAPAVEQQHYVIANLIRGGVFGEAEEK
T2 sequence 4: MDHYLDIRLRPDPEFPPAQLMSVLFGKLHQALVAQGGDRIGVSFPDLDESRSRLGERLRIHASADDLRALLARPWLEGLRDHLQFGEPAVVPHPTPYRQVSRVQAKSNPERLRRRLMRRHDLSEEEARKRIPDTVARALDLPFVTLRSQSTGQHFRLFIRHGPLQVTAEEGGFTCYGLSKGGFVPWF
Kind of data set: cryo-EM.

The target in data set [2] is T3, Csy complex (type I-F, wild type);Cas1-2/3 complex (Pseudomonas aeruginosa PA14;Pseudomonas …, UniProt Q02ML9;Q02MM0;Q02MM1;Q02MM2;Q02ML7;Q02ML8 1-434;1-327;1-342;1-187;1-324;1-1076, |). Kind of data set: EMSA.
T3 sequence (Q02ML7 whole entry, chain 5 of 2): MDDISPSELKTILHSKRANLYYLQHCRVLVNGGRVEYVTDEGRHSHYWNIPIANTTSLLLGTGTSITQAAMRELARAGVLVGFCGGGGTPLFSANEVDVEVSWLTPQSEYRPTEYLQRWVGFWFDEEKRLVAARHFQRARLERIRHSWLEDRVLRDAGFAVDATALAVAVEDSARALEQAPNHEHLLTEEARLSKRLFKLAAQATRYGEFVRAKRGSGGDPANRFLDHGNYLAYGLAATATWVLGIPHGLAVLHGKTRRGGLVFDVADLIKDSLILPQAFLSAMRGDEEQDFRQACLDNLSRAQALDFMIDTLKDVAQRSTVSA
T3 sequence (Q02ML8 whole entry, chain 6 of 2): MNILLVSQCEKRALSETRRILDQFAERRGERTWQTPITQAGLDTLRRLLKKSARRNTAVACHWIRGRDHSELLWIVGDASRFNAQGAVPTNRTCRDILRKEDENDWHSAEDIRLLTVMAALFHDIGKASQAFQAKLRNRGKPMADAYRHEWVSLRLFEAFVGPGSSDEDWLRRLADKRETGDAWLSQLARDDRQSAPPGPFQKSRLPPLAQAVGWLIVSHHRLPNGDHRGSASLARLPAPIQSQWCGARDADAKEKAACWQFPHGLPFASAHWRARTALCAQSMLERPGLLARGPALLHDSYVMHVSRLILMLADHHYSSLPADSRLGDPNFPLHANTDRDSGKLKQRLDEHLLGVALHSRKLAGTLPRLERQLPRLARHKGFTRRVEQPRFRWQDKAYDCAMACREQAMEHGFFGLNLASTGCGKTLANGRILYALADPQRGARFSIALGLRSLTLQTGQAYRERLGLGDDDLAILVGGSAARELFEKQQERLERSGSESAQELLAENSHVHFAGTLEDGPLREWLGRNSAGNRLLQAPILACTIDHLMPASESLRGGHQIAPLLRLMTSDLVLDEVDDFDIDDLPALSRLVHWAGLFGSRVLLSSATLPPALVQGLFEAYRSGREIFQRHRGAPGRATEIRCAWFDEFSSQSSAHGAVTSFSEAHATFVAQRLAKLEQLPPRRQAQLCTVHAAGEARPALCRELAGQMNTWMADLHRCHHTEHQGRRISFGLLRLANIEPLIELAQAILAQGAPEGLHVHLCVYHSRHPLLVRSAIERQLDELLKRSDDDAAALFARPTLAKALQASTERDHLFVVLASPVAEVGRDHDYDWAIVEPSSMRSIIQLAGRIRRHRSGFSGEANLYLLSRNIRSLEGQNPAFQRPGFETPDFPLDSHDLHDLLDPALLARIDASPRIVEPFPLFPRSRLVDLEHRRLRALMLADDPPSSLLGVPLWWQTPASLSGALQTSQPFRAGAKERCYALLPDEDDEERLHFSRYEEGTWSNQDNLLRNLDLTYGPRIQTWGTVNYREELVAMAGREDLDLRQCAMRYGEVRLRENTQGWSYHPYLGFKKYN
For data set [3], the target named is T3, Csy complex (type I-F, wild …). The data set can be described thus: EMSA. This is another data set of the same source.
Data set [4] deals with T2, Csy complex (type I-F, wild type). The data set can be described thus: EMSA.
Data set [5] concerns the target T4, Csy complex Cas8f RBC mutant (Pseudomonas aeruginosa PA14, UniProt Q02ML9;Q02MM0;Q02MM1;Q02MM2 1-434;1-327;1-342;1-187, R282E;H283D;R299E;R302E).
T4 sequence 1: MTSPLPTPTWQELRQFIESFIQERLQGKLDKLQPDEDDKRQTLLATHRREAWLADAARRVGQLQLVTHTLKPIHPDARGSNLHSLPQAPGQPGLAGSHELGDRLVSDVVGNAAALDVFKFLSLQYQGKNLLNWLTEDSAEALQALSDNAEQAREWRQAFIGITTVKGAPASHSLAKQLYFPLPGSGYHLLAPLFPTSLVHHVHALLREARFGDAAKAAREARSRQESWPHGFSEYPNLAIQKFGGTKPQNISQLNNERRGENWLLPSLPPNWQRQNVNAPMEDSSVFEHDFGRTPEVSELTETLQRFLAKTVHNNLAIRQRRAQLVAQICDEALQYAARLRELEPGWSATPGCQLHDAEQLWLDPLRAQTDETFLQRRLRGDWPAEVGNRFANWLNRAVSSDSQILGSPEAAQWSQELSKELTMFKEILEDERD
T4 sequence 2: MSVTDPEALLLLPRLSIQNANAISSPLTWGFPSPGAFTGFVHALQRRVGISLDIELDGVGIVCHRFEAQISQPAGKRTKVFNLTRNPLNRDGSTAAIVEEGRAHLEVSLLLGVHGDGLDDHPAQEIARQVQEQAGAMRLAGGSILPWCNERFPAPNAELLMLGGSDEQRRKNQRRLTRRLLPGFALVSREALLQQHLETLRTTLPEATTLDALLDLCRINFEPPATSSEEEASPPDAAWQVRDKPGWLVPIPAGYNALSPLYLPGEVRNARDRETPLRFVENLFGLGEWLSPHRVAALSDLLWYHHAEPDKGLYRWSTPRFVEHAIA
T4 sequence 3: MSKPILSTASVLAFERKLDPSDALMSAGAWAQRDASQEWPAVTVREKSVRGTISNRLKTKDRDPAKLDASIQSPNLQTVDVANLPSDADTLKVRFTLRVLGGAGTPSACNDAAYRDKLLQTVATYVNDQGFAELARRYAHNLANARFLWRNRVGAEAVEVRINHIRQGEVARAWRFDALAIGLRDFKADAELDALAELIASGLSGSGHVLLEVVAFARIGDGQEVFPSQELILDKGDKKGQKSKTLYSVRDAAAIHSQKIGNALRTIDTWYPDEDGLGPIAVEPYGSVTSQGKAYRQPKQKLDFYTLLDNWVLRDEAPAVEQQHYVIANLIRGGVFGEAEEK
T4 sequence 4: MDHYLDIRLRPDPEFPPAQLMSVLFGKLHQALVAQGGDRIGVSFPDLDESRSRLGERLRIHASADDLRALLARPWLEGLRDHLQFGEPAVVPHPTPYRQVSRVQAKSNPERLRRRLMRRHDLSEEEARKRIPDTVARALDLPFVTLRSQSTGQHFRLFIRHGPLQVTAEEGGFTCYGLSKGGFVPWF
The data set can be described thus: EMSA.

B1: Cas7f, backbone subunit of the Csy complex (natural protein, Pseudomonas aeruginosa (strain PA14))
chain: MSKPILSTASVLAFERKLDPSDALMSAGAWAQRDASQEWPAVTVREKSVRGTISNRLKTKDRDPAKLDASIQSPNLQTVDVANLPSDADTLKVRFTLRVLGGAGTPSACNDAAYRDKLLQTVATYVNDQGFAELARRYAHNLANARFLWRNRVGAEAVEVRINHIRQGEVARAWRFDALAIGLRDFKADAELDALAELIASGLSGSGHVLLEVVAFARIGDGQEVFPSQELILDKGDKKGQKSKTLYSVRDAAAIHSQKIGNALRTIDTWYPDEDGLGPIAVEPYGSVTSQGKAYRQPKQKLDFYTLLDNWVLRDEAPAVEQQHYVIANLIRGGVFGEAEEK
With B1, the binding result in “cryo-EM structure” is recorded as “binds”.

B2: 80-bp dsDNA target, GG PAM (dsDNA)
DNA 1: GCTGTACGTCACTATCGAAGCAATACAGGTAGACGCGGACATCAAGCCCGCCGTGAAGGTGCAGCTTCTCTACAGAGTGC
DNA 2: GCACTCTGTAGAGAAGCTGCACCTTCACGGCGGGCTTGATGTCCGCGTCTACCTGTATTGCTTCGATAGTGACGTACAGC
In the case of B2, the binding signal with Csy complex Cas8f N250A is > 1000 fold decrease in affinity vs WT. Further, the binding result in data set [1] and in data set [2] was “binds” each time.

B3: 80-bp target, TT PAM, bubble +1 to +10 (dsDNA)
DNA 1: GCTGTACGTCACTATCGAAGCAATACAGGTAGACGCGGACATCAAGCCCGCCGTGAATTTGCAGCTTCTCTACAGAGTGC
DNA 2: GCACTCTGTAGAGAAGCTGCAAAAAGTGCCGCCGCTTGATGTCCGCGTCTACCTGTATTGCTTCGATAGTGACGTACAGC
Consider B3, for which the binding result in data set [3] and in data set [4] was “binds” in each case.

B4: 80-bp target, GG PAM, bubble +1 to +10 (dsDNA)
DNA 1: GCTGTACGTCACTATCGAAGCAATACAGGTAGACGCGGACATCAAGCCCGCCGTGAAGGTGCAGCTTCTCTACAGAGTGC
DNA 2: GCACTCTGTAGAGAAGCTGCACCAAGTGCCGCCGCTTGATGTCCGCGTCTACCTGTATTGCTTCGATAGTGACGTACAGC
With B4, the binding result in data set [5] was “binds”.

B5: 80-bp target, CC PAM, bubble +1 to +10 (dsDNA)
DNA 1: GCTGTACGTCACTATCGAAGCAATACAGGTAGACGCGGACATCAAGCCCGCCGTGAACCTGCAGCTTCTCTACAGAGTGC
DNA 2: GCACTCTGTAGAGAAGCTGCAGGAAGTGCCGCCGCTTGATGTCCGCGTCTACCTGTATTGCTTCGATAGTGACGTACAGC
Regarding B5, the binding result in data set [3] and in data set [4] was “binds” in each case.

B6: 80-bp target, AA PAM, bubble +1 to +10 (dsDNA)
DNA 1: GCTGTACGTCACTATCGAAGCAATACAGGTAGACGCGGACATCAAGCCCGCCGTGAAAATGCAGCTTCTCTACAGAGTGC
DNA 2: GCACTCTGTAGAGAAGCTGCATTAAGTGCCGCCGCTTGATGTCCGCGTCTACCTGTATTGCTTCGATAGTGACGTACAGC
On to B6, for which the binding result in data set [3] and in data set [4] was “binds” throughout.
